Experimental findings from paper PMC12714728 (npj Viruses, 2025) are described below.

The target of test [1] is T1, hemagglutinin (HA) ectodomain of A/New Caledonia/20/1999 (H1N1) (influenza A virus A/New …, biotin on the BirA site). The experiment in a line: AlphaScreen or HTRF. Particulars: both partners purified. (In Alpha technology, singlet oxygen from a donor bead excites a nearby acceptor bead.)
Test [2] has as its target T1, hemagglutinin (HA) ectodomain of A/New …. The test can be described thus: cell-based or functional assay.

Starred links: 1 amine or outer side, 2 acyl side, 3 side chain; linkers in the order of their positions; H or OH if unused. Positions of bridges follow the written chain, without caps; N, C: chain ends. No end group written: not given here. Suc = O=C(CCC(=O)[*:2])[*:1]

In general, IC50 refers to the midpoint of a concentration-inhibition curve.

B1: cyclic peptide CP11 (peptide)
peptide: CYRDPLGVAGGMC
modifications: disulfide 1-13
notes: source: synthetic peptide (manual solid phase Fmoc chemistry, iodine oxidation, RP-HPLC)
B1 displayed an IC50 in test [1] of 4.99 µM.

B2: cyclic peptide CP12 (peptide)
peptide: CYEDPLGVAGGMC
modifications: not fully specified; cysteine pairing not given here
In the case of B2, half-maximal inhibition in test [1] (IC50) was put at 4.95 µM. The “virus neutralization assay (VNA) EC50, H1/NCa virus” value (“virus neutralization assay” below) in test [2] was found to be 58.3 µM.

B3: linear peptide LP1 (peptide)
peptide: Suc-VSLYRDPLGVAGGMGVY-NH2
notes: source: synthetic peptide (manual solid phase Fmoc chemistry, RP-HPLC)
For B3, in test [1], the IC50 is 22.9 µM.

B4: cyclic peptide CP13 (peptide)
peptide: CYRDPLGVAGEMC
modifications: not fully specified; cysteine pairing not given here
As for B4, the IC50 in test [1] was found to be 12.8 µM.

B5: cyclic peptide CP14 (peptide)
peptide: LYEDPLGVAGGMG
modifications: head-to-tail lactam cyclized (no template)
notes: as for B3
For B5, the half-maximal inhibitory concentration (IC50) in test [1] was 1.24 µM. Moreover, in test [2], the “virus neutralization assay” value is 45.3 µM.

B6: cyclic peptide CP8 (peptide)
peptide: CLYRDPLGVAGGMGC
modifications: not fully specified (bridges); cysteine pairing not given here
notes: as for B1
Regarding B6, the midpoint of inhibition in test [1], the IC50, lay at 0.16 µM. Also, the “virus neutralization assay” value in test [2] came out at 0.28 µM.
